Experimental data: article PMC5437177

Molecular target: T1, ABI5 (Arabidopsis thaliana) (UniProt Q9SJN0)
T1 sequence: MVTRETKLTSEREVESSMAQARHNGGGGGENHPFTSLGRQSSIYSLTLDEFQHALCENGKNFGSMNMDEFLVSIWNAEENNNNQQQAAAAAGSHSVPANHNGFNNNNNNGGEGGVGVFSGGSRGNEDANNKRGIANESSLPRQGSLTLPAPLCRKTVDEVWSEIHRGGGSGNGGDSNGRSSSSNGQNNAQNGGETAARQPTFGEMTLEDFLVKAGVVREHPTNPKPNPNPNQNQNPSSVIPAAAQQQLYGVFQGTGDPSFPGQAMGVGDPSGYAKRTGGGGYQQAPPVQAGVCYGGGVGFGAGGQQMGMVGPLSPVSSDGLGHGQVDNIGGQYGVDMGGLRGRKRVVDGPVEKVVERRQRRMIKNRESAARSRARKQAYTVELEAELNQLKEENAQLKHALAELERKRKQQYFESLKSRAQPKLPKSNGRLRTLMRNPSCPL
Assay: EMSA
Settings: 25 mM HEPES pH 8.0, 40 mM KCl, 5 mM MgCl2, 1 mM DTT, 1 mM EDTA, 8% glycerol, 1 ug/uL poly(dI-dC), 30 min room temperature; 5% native PAGE at 4 C

Row | Sequence | binding
1 | TCCTGAAATGGATCAACAATTGTCTAATTATGGTATAGTATCTGGCGAAATCAAAGACGATATCATCCACACGTAATTAGTTTGACTATTAATACGAGGATTATCATTTGGATAAGGATTAACAAAGACAAAACACATACGTGTTTTGGTGTTGAGCTAAAATAAGATATTTTGGCTCTCGCTATAAA (double strand) [pCAT1 wild type probe (-296/-108)] | binds
2 | TCCTGAAATGGATCAACAATTGTCTAATTATGGTATAGTATCTGGCGAAATCAAAGACGATATCATCCACACGTAATTAGTTTGACTATTAATACGAGGATTATCATTTGGATAAGGATTAACAAAGACAAAACACATTTTTGTTTTGGTGTTGAGCTAAAATAAGATATTTTGGCTCTCGCTATAAA (double strand) [pCAT1 box2 mutation probe] | binds more weakly
3 | TCCTGAAATGGATCAACAATTGTCTAATTATGGTATAGTATCTGGCGAAATCAAAGACGATATCATCCACTTTTAATTAGTTTGACTATTAATACGAGGATTATCATTTGGATAAGGATTAACAAAGACAAAACACATACGTGTTTTGGTGTTGAGCTAAAATAAGATATTTTGGCTCTCGCTATAAA (double strand) [pCAT1 box1 mutation probe] | binds more weakly
